For this test, the target named is fibrin (Homo sapiens (Human)) (UniProt P02671).

These results are taken from patent US20220218639A1.

As to δ-plasmin (enzyme), the percent clot digestion (clot weight before and after 2 hours of incubation, in serum, background-corrected) is 7.17%.
